Data reported in patent publication US7135170B2 (ZymoGenetics, Inc., priority 2002, dated 2006).

B1: IL-28A: human IL-28A polypeptide, previous designation zcyto20 (SEQ ID NOS: 2, 18, 36) (protein, listed as Homo sapiens)
chain: MKLDMTGDCTPVLVLMAAVLTVTGAVPVARLHGALPDARGCHIAQFKSLSPQELQAFKRAKDALEESLLLKDCRCHSRLFPRTWDLRQLQVRERPMALEAELALTLKVLEATADTDPALVDVLDQPLHTLHHILSQFRACIQPQPTAGPRTRGRLHHWLYRLQEAPKKESPGCLEASVTFNLFRLLTRDLNCVASGDLCV
modifications: SIGNAL (1)...(25)
B2: IL-29: human IL-29 polypeptide, previous designation zcyto21 (SEQ ID NOS: 4, 20, 38) (protein, listed as Homo sapiens)
chain: MAAAWTVVLVTLVLGLAVAGPVPTSKPTTTGKGCHIGRFKSLSPQELASFKKARDALEESLKLKNWSCSSPVFPGNWDLRLLQVRERPVALEAELALTLKVLEAAAGPALEDVLDQPLHTLHHILSQLQACIQPQPTAGPRPRGRLHHWLHRLQEAPKKESAGCLEASVTFNLFRLLTRDLKYVADGNLCLRTSTHPEST
modifications: SIGNAL (1)...(19)
B3: Zcyto24: previous designation for mouse IL-28A (SEQ ID NO: 8); mouse IL-28 (zcyto24) in b234 (protein, listed as Mus musculus)
chain: MKPETAGGHMLLLLLPLLLAAVLTRTQADPVPRATRLPVEAKDCHIAQFKSLSPKELQAFKKAKDAIEKRLLEKDLRCSSHLFPRAWDLKQLQVQERPKALQAEVALTLKVWENMTDSALATILGQPLHTLSHIHSQLQTCTQLQATAEPRSPSRRLSRWLHRLQEAQSKETPGCLEASVTSNLFRLLTRDLKCVANGDQCV

Legend:
[1] = test system: HSV-2; assay: HSV-2 cytopathic effect inhibition in Vero cells; format: cell-based, Herpes Simplex Virus-2; conditions: HSV-2, Vero cells
Experimental: The Vero cells are propagated in Dulbecco's modified essential medium (DMEM) containing phenol red with 10% horse serum, 1% glutamine and 1% penicillin-streptomycin, while the CPE inhibition assays are performed in DMEM without phenol red with 2% FBS, 1% glutamine and 1% Pen-Strep. On the day preceding the assays, cells were trypsinized (1% trypsin-EDTA), washed, counted and plated out at 10^4 cells/well in a 96-well flat-bottom BioCoat® plates (Fisher Scientific, Pittsburgh, Pa.) in a volume of 100 μl/well. The next morning, the medium was removed and a pre-titered aliquot of virus was added to the cells. The amount of virus used is the maximum dilution that would yield complete cell killing (>80% ) at the time of maximal CPE development. Cell viability is determined using a CellTiter 96® reagent (Promega) according to the manufacturer's protocol, using a Vmax plate reader (Molecular Devices, Sunnyvale, Calif.). Compounds are tested at six concentrations each, diluted in assay medium in a half-log series. Acyclovir was used as a positive control. Compounds are added at the time of viral infection. The average background and drug color-corrected data for percent CPE reduction and percent cell viability at each concentration are determined relative to controls and the IC50 calculated relative to the TC50.

[2] = test system: OAS activity; assay: OAS activity in serum and plasma of mice (OAS radioimmunoassay); format: in vivo, mouse; conditions: i.v., 10 μg–250 μg
Experimental: Serum and plasma were isolated from mice at varying time points, and OAS activity was measured using the OAS radioimmunoassay (RIA) kit from Eiken Chemicals (Tokyo, Japan).

[3] = test system: ISG induction (OAS, Pkr, Mx1) in AML-12 cells; assay: ISG induction in the mouse liver cell line AML-12 (real-time PCR); format: cell-based; conditions: AML-12, 20 ng/ml, 48 hour time point
Experimental: AML-12 cells were plated in 6-well plates in complete DMEM media at a concentration of 2×10^6 cells/well. […] As a control, cells were either stimulated with mouse IFNα (positive control) or unstimulated (negative). […] RNA was isolated from cell pellets using RNAEasy-kit® (Qiagen, Valencia, Calif.). RNA was treated with DNase (Millipore, Billerica, Mass.) to clean RNA of any contaminating DNA. cDNA was generated using Perkin-Elmer RT mix. ISG gene induction was evaluated by real-time PCR using primers and probes specific for mouse OAS, Pkr and Mx1. To obtain quantitative data, HPRT real-time PCR was duplexed with ISG PCR. A standard curve was obtained using known amounts of RNA from IFN-stimulated mouse PBLs. All data are shown as expression relative to internal HPRT expression.
All data shown were expressed as fold relative to HPRT gene expression

[4] = test system: HHV-8; assay: HHV-8 replication in BCBL-1 cells (TaqMan PCR, CellTiter96); format: cell-based, Human Herpesvirus-8; conditions: six days
[5] = test system: BVDV; assay: BVDV cytopathic effect inhibition in MDBK bovine kidney cells; format: cell-based, bovine viral diarrhea virus
Experimental: The MDBK cells were propagated in Dulbecco's modified essential medium (DMEM) containing phenol red with 10% horse serum, 1% glutamine and 1% penicillin-streptomycin. CPE inhibition assays were performed in DMEM without phenol red with 2% FBS, 1% glutamine and 1% Pen-Strep. On the day preceding the assays, cells were trypsinized (1% trypsin-EDTA), washed, counted and plated out at 10^4 cells/well in a 96-well flat-bottom BioCoat® plates (Fisher Scientific, Pittsburgh, Pa.) in a volume of 100 μl/well. The next day, the medium was removed and a pre-titered aliquot of virus was added to the cells. The amount of virus was the maximum dilution that would yield complete cell killing (>80% ) at the time of maximal CPE development (day 7 for BVDV). Cell viability was determined using a CellTiter96® reagent (Promega) according to the manufacturer's protocol, using a Vmax plate reader (Molecular Devices, Sunnyvale, Calif.). Test samples were tested at six concentrations each, diluted in assay medium in a half-log series. IFNα and RIBAVIRIN® were used as positive controls. Test sample were added at the time of viral infection. The average background and sample color-corrected data for percent CPE reduction and percent cell viability at each concentration were determined relative to controls and the IC50 calculated relative to the TC50.

[6] = test system: ISG gene expression (OAS, Pkr, Mx1) in liver, spleen and blood; assay: ISG gene expression in liver, spleen and blood of injected mice (real-time PCR); format: in vivo, mouse; conditions: mice
Experimental: Mice were sacrificed at various time points (1 hr-48 hr). Spleens and livers were isolated from mice, and RNA was isolated. RNA was also isolated from the blood cells. The cells were pelleted and RNA isolated from pellets using RNAEasy®-kit (Qiagen). RNA was treated with DNase (Amicon) to rid RNA of any contaminating DNA. cDNA was generated using Perkin-Elmer RT mix (Perkin-Elmer). ISG gene induction was measured by real-time PCR using primers and probes specific for mouse OAS, Pkr and Mx1. To obtain quantitative data, HPRT real-time PCR was duplexed with ISG PCR. A standard curve was calculated using known amounts of IFN-stimulated mouse PBLs. All data are shown as expression relative to internal HPRT expression.
Results shown are fold expression relative to HPRT gene expression. […] The data shown is the average expression from 5 different animals/group.
Mice were injected with 100 μg of proteins i.v. Data shown is fold expression over HPRT expression from livers of mice. Similar data was obtained from blood and spleens of mice.

[7] = test system: EMCV; assay: EMCV antiviral assay (MTT dye-uptake) in HepG2 cells; format: cell-based, encephalomyocarditis virus; conditions: cytokine 24 hours before EMCV, OD570
[8] = test system: adenoviral vector, AdGFP; assay: Adenoviral vector (AdGFP) liver pathology in mice; conditions: for liver and inflammation scores (histology): vs the PBS-treated group
[9] = test system: human marrow mononuclear cells; assay: Bone marrow expansion assay (Alamar Blue); format: cell-based; conditions: in the presence of IL-2 or IL-15
[10] = test system: ISGs OAS, Pkr and Mx1 in spleens; assay: ISG expression in spleens of Eu-lck human IL-29 transgenic mice; format: in vivo, mouse; conditions: spleen of IL-29 Tg mice
Experimental: This promoter is active in T cells and B cells. Transgenic mice and their non-transgenic littermates (n=2/gp) were sacrificed at about 10 weeks of age. Spleens of mice were isolated. RNA was isolated from cell pellets using RNAEasy-kit® (Qiagen). RNA was treated with DNase to clean RNA of any contaminating DNA. cDNA was generated using Perkin-Elmer RT® mix. ISG gene induction was evaluated by real-time PCR using primers and probes (5′ FAM, 3′ NFQ) specific for mouse OAS, Pkr and Mx1. To obtain quantitative data, HPRT real-time PCR was duplexed with ISG PCR. Furthermore, a standard curve was obtained using known amounts of IFN stimulated mouse PBLs. All data are shown as expression relative to internal HPRT expression.
All data shown are fold expression relative to HPRT gene expression. The average expression in two mice is shown

[11] = test system: ISRE signaling in HepG2 cells; assay: ISRE-luciferase signal transduction reporter assay in HepG2 cells; format: cell-based, human; conditions: 100 ng/ml ligand, 4-hour; RLU over medium alone
[12] = test system: Mouse B cells; assay: Mouse B cell 3H-thymidine incorporation; format: cell-based
Experimental: Mouse B cells were isolated from 2 Balb/C spleens (7 months old) by depleting CD43+ cells using MACS magnetic beads. Purified B cells were cultured in vitro with LPS, anti-IgM or anti-CD40 monoclonal antibodies. Mouse IL-28 or mouse IFNα was added to the cultures and ^3H-thymidine was added at 48 hrs. and ^3H-thymidine incorporation was measured after 72 hrs. culture.

[13] = average of two mice (Non-Tg 4.5)

| Molecule | antiviral activity [1] | OAS activity in the serum and plasma of mice [2] | Mx1 expression [3] | OAS expression [3] | PkR expression [3] | IC50, extracellular HHV-8 DNA [4] [µg/mL] | IC50, inhibition of cell death induced by BVDV [5] [µg/mL] | time of peak expression of ISGs after injection [6] [h] | EC50 [7] [ng/mL] | liver histology: sinusoidal cells, mitotic figures, changes in the hepatocytes ([8]; vs the PBS treatment group) | liver and inflammation scores (histology) [8] | expansion of bone marrow cells [9] | Mx1 expression ([10]; average of two mice (Non-Tg 3.5)) | OAS expression [10, 13] | PkR expression [10, 13] | Fold Inductn. of ISRE signaling [11] [fold] | 3H-thymidine incorporation by mouse B cells ([12]; stimulated with LPS or anti-IgM, IFNα 10 ng/ml, mouse IL-28 any concentration incl. 1000 ng/ml) | 3H thymidine incorporation by mouse B cells ([12]; stimulated with anti-CD40 MAb) |
| --- | --- | --- | --- | --- | --- | --- | --- | --- | --- | --- | --- | --- | --- | --- | --- | --- | --- | --- |
| IFNα | no antiviral activity | – | – | – | – | – | – | – | – | – | – | – | – | – | – | – | – | – |
| B1 | – | induced OAS activity | 0.06 fold relative to HPRT gene expression | 0.04 fold relative to HPRT gene expression | 0.02 fold relative to HPRT gene expression | 1 | 0.02 | – | – | – | – | – | – | – | – | – | – | – |
| B2 | – | – | 0.07 fold relative to HPRT gene expression | 0.04 fold relative to HPRT gene expression | 0.02 fold relative to HPRT gene expression | 6.5 | 0.19 | 1 to 6 | 0.60 | less proliferation of sinusoidal cells, fewer mitotic figures and fewer changes in the hepatocytes | lower liver and inflammation scores | small inhibition | 21 fold expression relative to HPRT gene expression | 12 fold expression relative to HPRT gene expression | 8 fold expression relative to HPRT gene expression | – | – | – |
| B3 | – | – | 0.08 fold relative to HPRT gene expression | 0.04 fold relative to HPRT gene expression | 0.02 fold relative to HPRT gene expression | – | – | – | – | – | lower liver and inflammation scores | – | – | – | – | 4.7 | did not inhibit | increased |
